According to article PMC9237840:

Experiments:
Experiment in all cases: EMSA
[1] = biological target: T1, GST-Rib-PSQ DNA-binding domain (Drosophila melanogaster, UniProt Q7KF43 363-414)
T1 sequence: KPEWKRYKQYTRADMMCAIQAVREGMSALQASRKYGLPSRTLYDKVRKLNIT

Ribbon (Rib) full-length = biological target: T2, Ribbon (Rib) full-length (Drosophila melanogaster, UniProt Q7KF43 1-661)
T2 sequence: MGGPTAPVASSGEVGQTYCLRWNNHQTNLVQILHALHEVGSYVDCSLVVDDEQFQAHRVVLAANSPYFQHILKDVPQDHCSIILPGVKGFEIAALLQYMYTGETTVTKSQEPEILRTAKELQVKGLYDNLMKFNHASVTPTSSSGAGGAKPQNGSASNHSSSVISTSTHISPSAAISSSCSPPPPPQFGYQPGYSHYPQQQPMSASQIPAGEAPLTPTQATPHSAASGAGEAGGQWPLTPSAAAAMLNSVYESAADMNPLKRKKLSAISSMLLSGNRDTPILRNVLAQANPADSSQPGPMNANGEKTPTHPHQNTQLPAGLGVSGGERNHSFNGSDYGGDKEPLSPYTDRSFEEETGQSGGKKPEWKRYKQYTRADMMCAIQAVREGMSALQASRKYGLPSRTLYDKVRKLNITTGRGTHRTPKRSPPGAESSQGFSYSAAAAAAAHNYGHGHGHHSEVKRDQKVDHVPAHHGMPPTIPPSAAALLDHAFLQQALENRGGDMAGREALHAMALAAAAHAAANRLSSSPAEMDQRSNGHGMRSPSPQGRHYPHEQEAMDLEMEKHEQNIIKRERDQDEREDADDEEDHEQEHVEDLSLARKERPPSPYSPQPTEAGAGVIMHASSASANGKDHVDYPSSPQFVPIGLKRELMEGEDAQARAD

CrebA full-length = biological target: T3, CrebA full-length (Drosophila melanogaster, UniProt P29747 1-516)
T3 sequence: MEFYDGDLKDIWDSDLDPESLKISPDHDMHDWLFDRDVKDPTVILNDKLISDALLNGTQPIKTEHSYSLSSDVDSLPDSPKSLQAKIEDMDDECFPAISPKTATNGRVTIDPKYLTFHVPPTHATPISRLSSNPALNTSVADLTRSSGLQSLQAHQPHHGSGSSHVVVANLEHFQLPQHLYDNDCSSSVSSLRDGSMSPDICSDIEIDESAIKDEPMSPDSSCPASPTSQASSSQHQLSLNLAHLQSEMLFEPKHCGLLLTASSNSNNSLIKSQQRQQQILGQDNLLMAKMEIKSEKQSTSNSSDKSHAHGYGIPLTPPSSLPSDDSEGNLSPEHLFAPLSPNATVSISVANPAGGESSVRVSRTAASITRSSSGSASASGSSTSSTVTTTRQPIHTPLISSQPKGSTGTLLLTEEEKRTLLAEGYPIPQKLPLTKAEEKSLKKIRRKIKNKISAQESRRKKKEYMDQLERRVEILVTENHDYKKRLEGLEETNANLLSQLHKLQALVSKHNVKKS

B1: RpL17 (dsDNA)
DNA 1: ACTGCCATTTCCTTTCTTTTTCGTTCCACGTTTCCGGTGAGTGCATGTGC
DNA 2: GCACATGCACTCACCGGAAACGTGGAACGAAAAAGAAAGGAAATGGCAGT
[1]
  binding result: binds
Ribbon (Rib) full-length
  binding result: binds

B2: RpL19 (dsDNA)
DNA 1: TTCCGGCTGTCAAATTTTTCTTTCTTTCCTAGCCACGACGAGGTCGACAG
DNA 2: CTGTCGACCTCGTCGTGGCTAGGAAAGAAAGAAAAATTTGACAGCCGGAA
[1]
  binding result: binds
Ribbon (Rib) full-length
  binding result: binds

B3: TSN-2 (dsDNA)
DNA 1: ATCTGATTTGGTGACGTTGGCACCCTGCA
DNA 2: TGCAGGGTGCCAACGTCACCAAATCAGAT
CrebA full-length
  binding result: binds

B4: RpL11 (dsDNA)
DNA 1: CGCGGCCACACTATCCTTTCCTTCTTTTCTTACAAGTTTCCGGTGAGTGC
DNA 2: GCACTCACCGGAAACTTGTAAGAAAAGAAGGAAAGGATAGTGTGGCCGCG
[1]
  binding result: binds
Ribbon (Rib) full-length
  binding result: binds

B5: RpS18 (dsDNA)
DNA 1: GGCAGCCACATTAATTCGGCCTTCTTTTCTTTTCCCGTTTCCGGTGAGTG
DNA 2: CACTCACCGGAAACGGGAAAAGAAAAGAAGGCCGAATTAATGTGGCTGCC
[1]
  binding result: binds
Ribbon (Rib) full-length
  binding result: binds

B6: RpS17* (T to G in TC-rich motif) (dsDNA)
DNA 1: ACACAACCACCCTGGTCACACGGCATCCGGCGGGGGCGGGCGGGGCCGGC
DNA 2: GCCGGCCCCGCCCGCCCCCGCCGGATGCCGTGTGACCAGGGTGGTTGTGT
[1]
  binding result: binds
Ribbon (Rib) full-length
  binding result: binds

B7: RpS3 (dsDNA)
DNA 1: AACGTGTCTCGCGCGGGCACACTGGCCTCTTTCTTTTCTGCGCACCACGT
DNA 2: ACGTGGTGCGCAGAAAAGAAAGAGGCCAGTGTGCCCGCGCGAGACACGTT
[1]
  binding result: binds
Ribbon (Rib) full-length
  binding result: binds

B8: P24.1 (dsDNA)
DNA 1: CCGATAGCATATACGTGGGTCCGCAGTGC
DNA 2: GCACTGCGGACCCACGTATATGCTATCGG
CrebA full-length
  binding result: binds

B9: RpL7A (dsDNA)
DNA 1: AACTGCCACTTCCTTTCTTTTTCGTTCCACGTTTCCGGTGAGTGCATGTG
DNA 2: CACATGCACTCACCGGAAACGTGGAACGAAAAAGAAAGGAAGTGGCAGTT
[1]
  binding result: binds
Ribbon (Rib) full-length
  binding result: binds

B10: RpS27A (dsDNA)
DNA 1: TTCAACTTCCTGTCACGCTGTGTGTGTGTTCTTTCTTTCCTTTGATTCTG
DNA 2: CAGAATCAAAGGAAAGAAAGAACACACACACAGCGTGACAGGAAGTTGAA
[1]
  binding result: binds
Ribbon (Rib) full-length
  binding result: binds

B11: RpL6 (dsDNA)
DNA 1: CCCTGGTCACACCGCTCTAGACATAACCTTCCTTTTCCAATAATTTTTGT
DNA 2: ACAAAAATTATTGGAAAAGGAAGGTTATGTCTAGAGCGGTGTGACCAGGG
[1]
  binding result: binds
Ribbon (Rib) full-length
  binding result: binds

B12: RpS10b (dsDNA)
DNA 1: ATCCCTTCCGTTTCCCTTTCTTTTCGTCTTCACGTTTCCGGTGAGTGCGT
DNA 2: ACGCACTCACCGGAAACGTGAAGACGAAAAGAAAGGGAAACGGAAGGGAT
[1]
  binding result: binds
Ribbon (Rib) full-length
  binding result: binds

B13: RpS17 (dsDNA)
DNA 1: ACACAACCACCCTGGTCACACGGCATCCTTCTTTTTCTTTCGTTTCCGGC
DNA 2: GCCGGAAACGAAAGAAAAAGAAGGATGCCGTGTGACCAGGGTGGTTGTGT
[1]
  binding result: binds
Ribbon (Rib) full-length
  binding result: binds
